# According to patent US20140072613A1, “Compositions and Methods for Treating Cutaneous Scarring” (priority 2012, published 2014):
# How the values were obtained:
# Experiment in all cases: cell-based or functional assay
# [1] = biological target: EphA4(h) (human) (UniProt P54764)
# [2] = biological target: MEK1(h) (human) (UniProt Q02750)
# [3] = biological target: AMPKα2(h) (human) (UniProt P54646)
# [4] = biological target: CaMKIIγ(h) (human) (UniProt Q13555)
# [5] = biological target: Rsk2(h) (human) (UniProt P51812)
# [6] = biological target: T1, eEF-2K(h) (human) (UniProt O00418)
# T1 sequence (looked up): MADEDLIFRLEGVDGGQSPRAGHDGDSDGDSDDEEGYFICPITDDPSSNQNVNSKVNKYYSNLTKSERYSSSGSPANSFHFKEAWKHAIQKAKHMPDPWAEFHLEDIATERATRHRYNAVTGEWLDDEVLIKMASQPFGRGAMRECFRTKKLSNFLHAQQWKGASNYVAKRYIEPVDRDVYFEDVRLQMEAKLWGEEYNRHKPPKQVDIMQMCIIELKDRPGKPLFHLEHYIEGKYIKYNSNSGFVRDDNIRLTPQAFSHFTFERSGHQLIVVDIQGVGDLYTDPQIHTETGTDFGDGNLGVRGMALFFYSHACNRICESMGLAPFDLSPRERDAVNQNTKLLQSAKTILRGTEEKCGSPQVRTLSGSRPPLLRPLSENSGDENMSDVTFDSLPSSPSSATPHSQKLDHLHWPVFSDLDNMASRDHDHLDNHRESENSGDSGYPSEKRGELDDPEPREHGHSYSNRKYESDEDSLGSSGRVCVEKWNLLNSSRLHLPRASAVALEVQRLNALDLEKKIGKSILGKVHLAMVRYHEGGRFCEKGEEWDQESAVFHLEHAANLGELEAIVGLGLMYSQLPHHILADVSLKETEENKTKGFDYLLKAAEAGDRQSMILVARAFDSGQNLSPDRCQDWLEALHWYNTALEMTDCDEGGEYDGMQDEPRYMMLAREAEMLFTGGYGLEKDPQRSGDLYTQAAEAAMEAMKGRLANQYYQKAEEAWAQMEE
# [7] = biological target: T2, ARK5(h) (human) (UniProt O60285)
# T2 sequence (looked up): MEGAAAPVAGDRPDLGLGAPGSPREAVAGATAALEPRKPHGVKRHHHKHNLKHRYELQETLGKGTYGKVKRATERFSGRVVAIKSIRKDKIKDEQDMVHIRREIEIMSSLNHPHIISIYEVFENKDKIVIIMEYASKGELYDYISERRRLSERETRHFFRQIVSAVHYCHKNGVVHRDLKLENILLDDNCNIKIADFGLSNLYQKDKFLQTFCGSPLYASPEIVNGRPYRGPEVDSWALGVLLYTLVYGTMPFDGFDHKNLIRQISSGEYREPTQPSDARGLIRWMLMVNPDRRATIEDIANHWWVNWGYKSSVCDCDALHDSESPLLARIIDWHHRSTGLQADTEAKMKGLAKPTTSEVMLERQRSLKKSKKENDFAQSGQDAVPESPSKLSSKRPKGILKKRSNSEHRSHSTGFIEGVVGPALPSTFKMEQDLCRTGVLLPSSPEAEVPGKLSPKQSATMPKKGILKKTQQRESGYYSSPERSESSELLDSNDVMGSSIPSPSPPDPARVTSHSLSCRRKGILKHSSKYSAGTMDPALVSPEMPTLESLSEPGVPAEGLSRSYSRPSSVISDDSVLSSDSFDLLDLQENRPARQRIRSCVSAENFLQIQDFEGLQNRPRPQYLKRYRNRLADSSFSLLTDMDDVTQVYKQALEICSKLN
# [8] = biological target: T3, Ret(V804M)(h) (human) (UniProt P07949)
# T3 sequence (looked up): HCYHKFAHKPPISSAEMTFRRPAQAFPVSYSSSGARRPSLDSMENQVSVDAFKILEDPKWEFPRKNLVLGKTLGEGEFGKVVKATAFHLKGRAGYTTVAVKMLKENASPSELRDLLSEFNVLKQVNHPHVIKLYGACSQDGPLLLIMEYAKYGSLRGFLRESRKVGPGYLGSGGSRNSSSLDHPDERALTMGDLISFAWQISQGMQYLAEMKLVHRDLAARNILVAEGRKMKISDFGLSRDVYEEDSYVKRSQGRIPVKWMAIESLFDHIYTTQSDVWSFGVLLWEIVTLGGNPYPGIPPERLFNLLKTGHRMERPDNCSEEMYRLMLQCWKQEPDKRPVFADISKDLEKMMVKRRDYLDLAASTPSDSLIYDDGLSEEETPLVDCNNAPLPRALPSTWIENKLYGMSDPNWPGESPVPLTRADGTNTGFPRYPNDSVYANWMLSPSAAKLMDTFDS
# [9] = biological target: PRAK(h) (human) (UniProt Q8IW41)
# [10] = biological target: T4, SGK3(h) (human) (UniProt Q96BR1)
# T4 sequence (looked up): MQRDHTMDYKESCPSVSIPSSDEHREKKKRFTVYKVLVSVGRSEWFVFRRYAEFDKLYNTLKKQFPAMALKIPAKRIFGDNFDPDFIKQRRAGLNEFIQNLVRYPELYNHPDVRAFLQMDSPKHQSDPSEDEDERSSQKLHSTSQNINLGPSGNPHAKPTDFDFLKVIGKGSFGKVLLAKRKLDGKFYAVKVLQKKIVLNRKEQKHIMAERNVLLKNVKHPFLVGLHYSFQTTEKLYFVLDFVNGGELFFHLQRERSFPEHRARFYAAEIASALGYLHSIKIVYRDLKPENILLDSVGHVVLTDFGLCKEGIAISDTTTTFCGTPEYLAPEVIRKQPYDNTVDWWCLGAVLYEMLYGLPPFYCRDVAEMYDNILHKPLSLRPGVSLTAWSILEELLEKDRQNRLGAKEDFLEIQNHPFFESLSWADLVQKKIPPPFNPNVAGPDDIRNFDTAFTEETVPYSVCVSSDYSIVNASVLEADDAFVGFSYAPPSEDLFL
# [11] = biological target: TrkA(h) (human) (UniProt P04629)
# [12] = biological target: PRK2(h) (human) (UniProt Q16513)
# PRK2(h) (human), sequence (Q16513 501-984 limits assumed): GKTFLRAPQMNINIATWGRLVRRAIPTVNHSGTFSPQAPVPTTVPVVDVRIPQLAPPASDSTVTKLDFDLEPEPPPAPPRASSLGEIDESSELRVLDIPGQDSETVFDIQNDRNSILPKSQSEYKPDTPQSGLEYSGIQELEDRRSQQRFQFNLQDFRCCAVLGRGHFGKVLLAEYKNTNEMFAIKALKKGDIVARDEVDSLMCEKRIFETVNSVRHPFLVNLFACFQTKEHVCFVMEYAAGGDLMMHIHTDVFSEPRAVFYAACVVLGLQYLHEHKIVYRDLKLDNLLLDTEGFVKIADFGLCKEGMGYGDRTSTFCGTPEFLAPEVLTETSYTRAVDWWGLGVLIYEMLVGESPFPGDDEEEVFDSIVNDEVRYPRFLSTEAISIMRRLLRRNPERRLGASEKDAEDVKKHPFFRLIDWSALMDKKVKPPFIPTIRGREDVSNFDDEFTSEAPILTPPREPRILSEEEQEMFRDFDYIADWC
# CaMKIIγ(h) (human), sequence (Q13555 whole entry): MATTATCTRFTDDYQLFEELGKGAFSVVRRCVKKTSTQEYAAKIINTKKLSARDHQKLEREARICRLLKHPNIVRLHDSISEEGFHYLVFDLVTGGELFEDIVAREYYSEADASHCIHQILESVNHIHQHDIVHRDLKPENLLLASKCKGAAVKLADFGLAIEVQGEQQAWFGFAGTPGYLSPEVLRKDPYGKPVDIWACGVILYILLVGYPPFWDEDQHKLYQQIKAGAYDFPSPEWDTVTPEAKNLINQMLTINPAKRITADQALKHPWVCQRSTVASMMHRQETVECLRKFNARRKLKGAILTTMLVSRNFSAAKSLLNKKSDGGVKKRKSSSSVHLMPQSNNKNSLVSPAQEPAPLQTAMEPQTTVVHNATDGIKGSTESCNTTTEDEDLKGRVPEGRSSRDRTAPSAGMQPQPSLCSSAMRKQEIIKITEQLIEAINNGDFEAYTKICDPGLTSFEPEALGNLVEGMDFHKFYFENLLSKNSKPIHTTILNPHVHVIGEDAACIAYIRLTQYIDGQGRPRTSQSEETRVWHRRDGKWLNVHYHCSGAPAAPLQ
# PRAK(h) (human), sequence (Q8IW41 whole entry): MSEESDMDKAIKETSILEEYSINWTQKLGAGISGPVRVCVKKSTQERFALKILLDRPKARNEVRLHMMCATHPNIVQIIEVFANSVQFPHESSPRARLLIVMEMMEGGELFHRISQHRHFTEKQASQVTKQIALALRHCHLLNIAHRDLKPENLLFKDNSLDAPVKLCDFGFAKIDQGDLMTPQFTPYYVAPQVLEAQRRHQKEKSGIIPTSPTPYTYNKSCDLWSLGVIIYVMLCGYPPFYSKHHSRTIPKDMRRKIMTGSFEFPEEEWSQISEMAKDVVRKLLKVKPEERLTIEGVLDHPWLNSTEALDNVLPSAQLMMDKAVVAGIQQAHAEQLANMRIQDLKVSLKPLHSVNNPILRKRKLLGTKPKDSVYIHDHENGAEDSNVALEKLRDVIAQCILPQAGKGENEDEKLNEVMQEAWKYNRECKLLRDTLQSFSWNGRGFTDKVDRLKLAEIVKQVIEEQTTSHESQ
# TrkA(h) (human), sequence (P04629 441-796 limits assumed): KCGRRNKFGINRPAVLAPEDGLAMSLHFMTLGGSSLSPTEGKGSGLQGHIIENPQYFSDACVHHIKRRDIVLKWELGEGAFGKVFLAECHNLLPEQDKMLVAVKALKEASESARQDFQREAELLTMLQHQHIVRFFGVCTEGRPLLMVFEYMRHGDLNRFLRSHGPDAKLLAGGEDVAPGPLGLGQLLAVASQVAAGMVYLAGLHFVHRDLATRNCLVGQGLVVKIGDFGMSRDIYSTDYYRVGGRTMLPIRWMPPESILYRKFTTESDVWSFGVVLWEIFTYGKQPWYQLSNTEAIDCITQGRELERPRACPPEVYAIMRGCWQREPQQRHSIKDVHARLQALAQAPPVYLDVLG
# Rsk2(h) (human), sequence (P51812 whole entry): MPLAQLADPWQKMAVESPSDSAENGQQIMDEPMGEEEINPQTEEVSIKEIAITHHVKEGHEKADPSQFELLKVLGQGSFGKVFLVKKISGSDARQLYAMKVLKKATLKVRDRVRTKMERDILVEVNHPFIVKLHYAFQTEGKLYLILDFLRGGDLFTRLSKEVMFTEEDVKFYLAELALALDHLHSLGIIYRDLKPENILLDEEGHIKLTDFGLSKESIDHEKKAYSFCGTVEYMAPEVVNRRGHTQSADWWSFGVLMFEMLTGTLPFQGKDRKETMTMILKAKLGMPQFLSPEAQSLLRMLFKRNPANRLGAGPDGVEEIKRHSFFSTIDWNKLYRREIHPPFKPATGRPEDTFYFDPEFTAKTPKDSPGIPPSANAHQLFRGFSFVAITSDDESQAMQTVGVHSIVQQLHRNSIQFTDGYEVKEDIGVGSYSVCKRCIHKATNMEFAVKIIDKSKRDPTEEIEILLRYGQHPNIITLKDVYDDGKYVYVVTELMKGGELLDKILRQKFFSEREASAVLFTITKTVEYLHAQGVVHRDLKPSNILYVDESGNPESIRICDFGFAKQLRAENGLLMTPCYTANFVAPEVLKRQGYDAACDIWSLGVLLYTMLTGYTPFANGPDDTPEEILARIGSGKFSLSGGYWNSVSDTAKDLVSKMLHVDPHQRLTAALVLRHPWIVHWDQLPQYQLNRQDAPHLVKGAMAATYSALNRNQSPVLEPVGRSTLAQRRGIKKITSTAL
# EphA4(h) (human), sequence (P54764 570-986 limits assumed): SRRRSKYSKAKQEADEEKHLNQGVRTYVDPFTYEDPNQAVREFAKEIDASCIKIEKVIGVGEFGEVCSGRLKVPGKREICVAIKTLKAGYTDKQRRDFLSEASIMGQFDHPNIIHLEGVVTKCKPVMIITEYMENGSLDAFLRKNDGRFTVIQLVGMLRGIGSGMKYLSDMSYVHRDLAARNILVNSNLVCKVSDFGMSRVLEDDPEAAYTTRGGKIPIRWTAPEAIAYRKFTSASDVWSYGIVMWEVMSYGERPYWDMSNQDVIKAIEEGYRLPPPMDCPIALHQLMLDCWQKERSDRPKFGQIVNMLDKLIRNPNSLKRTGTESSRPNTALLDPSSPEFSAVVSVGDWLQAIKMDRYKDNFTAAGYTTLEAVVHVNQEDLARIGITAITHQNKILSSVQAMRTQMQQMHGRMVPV
# AMPKα2(h) (human), sequence (P54646 whole entry): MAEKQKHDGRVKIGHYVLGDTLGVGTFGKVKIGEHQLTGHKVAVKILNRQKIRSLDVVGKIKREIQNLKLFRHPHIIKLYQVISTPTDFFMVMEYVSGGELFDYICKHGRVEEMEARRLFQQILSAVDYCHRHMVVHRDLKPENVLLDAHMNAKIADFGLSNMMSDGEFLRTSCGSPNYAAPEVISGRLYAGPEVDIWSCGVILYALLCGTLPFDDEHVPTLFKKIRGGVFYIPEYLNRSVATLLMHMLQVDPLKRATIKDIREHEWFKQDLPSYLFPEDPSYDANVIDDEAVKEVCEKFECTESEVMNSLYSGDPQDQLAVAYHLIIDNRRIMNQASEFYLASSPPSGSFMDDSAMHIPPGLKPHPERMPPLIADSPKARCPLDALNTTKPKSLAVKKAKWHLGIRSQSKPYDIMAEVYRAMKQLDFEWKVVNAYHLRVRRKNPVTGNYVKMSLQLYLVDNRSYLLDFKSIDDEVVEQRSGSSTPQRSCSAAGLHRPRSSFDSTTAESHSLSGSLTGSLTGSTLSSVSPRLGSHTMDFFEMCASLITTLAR
substance,measurement,setting,value
MMI-0500 (peptide),"% activity, 100 µM",[1],48%
same,"% activity, 100 µM",[2],21%
same,"% activity, 100 µM",[3],9%
same,"% activity, 100 µM",[4],3%
same,"% activity, 100 µM",[5],14%
same,"% activity, 100 µM",[6],43%
same,"% activity, 100 µM",[7],20%
same,"% activity, 100 µM",[8],36%
same,"% activity, 100 µM",[9],95%
same,"% activity, 100 µM",[10],-3%
same,"% activity, 100 µM",[11],24%
same,"% activity, 100 µM",[12],7%
